Measured values: doi:10.1101/728907 (bioRxiv, 2019)

Target: T1, GFLV-derived virus-like particles (VLP) in which enhanced GFP is encaged (Grapevine fanleaf virus, isolate not …)
T1 chain: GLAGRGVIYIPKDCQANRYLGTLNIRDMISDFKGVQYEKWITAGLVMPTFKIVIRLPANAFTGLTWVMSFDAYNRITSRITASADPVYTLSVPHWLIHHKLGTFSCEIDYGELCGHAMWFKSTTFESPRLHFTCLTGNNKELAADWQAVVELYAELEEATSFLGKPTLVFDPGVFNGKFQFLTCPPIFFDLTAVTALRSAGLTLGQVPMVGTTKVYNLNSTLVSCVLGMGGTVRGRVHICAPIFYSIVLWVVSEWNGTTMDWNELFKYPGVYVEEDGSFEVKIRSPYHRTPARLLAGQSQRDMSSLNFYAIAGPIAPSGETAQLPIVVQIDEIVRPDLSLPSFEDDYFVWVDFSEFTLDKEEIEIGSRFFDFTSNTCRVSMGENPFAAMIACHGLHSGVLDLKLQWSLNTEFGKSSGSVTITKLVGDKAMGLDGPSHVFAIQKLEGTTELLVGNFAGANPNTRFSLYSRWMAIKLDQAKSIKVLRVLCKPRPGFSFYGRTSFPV
Assay: MST

B1: Nanobody Nb23 specific to GFLV (VHH)
VHH: QVQLQESGGGSVQVGGSLRVACAASGDTFSGYLAAWFRQAPGKGREGVAAINSKRHTTSYADSVKGRFTISKDNADNIMYLEMNSLKPEDTAIYYCAAADAIGLAEYWSTPTLSAARYKYWGQGTQVTVSS
Question: How did the Kd turn out when B1 was run?
Answer: Its Kd is 9.13 nM.
